Patent EP2658867B1 (Avidbiotics Corp., dated 2018)

Assays:
integrin αVβ3 [1] = molecular target: T1, integrin αVβ3 (UniProt P06756 31-992; P05106 27-718); test: phage ELISA, integrin coated, anti-M13-HRP
T1 construct: Coated on the ELISA plate

integrin αVβ5 [2] = molecular target: T2, integrin αVβ5 (UniProt P06756 31-992; P18084 24-719); test: phage ELISA, integrin coated, anti-M13-HRP
T2 construct: Coated on the ELISA plate

integrin αVβ3 [3] = molecular target: T1, integrin αVβ3; test: ELISA, integrin coated, anti-MICA-HRP
integrin αVβ5 [4] = molecular target: T2, integrin αVβ5; test: ELISA, integrin coated, anti-MICA-HRP

T1 sequence (P06756 31-992, chain 1 of 2): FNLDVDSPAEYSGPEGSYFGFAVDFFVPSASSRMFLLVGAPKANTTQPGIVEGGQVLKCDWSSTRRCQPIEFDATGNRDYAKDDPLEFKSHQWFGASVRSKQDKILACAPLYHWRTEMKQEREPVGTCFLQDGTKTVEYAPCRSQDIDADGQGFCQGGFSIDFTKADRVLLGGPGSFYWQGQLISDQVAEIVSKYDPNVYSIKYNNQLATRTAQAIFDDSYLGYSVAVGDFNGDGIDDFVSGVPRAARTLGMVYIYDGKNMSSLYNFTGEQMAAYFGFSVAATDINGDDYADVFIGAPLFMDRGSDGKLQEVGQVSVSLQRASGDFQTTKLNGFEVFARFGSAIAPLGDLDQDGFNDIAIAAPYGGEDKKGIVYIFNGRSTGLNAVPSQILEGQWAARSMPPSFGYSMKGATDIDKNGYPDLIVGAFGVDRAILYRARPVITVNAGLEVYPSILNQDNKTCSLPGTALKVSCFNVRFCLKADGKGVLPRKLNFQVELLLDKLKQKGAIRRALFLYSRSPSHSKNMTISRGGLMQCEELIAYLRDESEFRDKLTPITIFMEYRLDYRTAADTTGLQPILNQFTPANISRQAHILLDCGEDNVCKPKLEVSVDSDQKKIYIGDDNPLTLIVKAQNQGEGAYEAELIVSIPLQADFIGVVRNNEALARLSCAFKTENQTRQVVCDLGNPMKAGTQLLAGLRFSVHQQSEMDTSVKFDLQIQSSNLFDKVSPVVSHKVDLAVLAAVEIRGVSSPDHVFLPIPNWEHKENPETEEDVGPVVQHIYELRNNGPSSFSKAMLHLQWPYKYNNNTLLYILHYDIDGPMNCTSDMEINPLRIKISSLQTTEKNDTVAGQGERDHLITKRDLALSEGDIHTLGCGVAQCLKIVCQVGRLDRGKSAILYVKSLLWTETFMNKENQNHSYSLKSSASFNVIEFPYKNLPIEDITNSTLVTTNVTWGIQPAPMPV
T1 sequence (P05106 27-718, chain 2 of 2): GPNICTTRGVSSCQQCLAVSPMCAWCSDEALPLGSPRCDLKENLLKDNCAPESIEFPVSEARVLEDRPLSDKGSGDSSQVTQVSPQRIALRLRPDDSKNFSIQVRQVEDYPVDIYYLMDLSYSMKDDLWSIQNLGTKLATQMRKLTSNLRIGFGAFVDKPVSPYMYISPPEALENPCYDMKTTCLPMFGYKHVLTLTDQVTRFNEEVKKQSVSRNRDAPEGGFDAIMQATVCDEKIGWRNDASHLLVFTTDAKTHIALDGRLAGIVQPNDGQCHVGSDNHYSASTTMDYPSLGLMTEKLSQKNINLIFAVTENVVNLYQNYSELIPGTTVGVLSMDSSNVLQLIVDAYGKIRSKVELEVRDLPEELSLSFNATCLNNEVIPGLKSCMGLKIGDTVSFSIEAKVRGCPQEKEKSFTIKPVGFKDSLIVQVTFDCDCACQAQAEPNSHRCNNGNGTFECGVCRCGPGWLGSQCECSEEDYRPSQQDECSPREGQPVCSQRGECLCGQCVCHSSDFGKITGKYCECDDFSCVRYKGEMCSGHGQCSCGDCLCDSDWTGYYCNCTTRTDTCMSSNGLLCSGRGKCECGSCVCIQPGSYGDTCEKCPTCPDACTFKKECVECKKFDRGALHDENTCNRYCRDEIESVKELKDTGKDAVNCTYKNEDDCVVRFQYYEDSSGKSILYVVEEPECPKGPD
T2 sequence (P06756 31-992, chain 1 of 2): as the sequence (P06756 31-992, chain 1 of 2) above
T2 sequence (P18084 24-719, chain 2 of 2): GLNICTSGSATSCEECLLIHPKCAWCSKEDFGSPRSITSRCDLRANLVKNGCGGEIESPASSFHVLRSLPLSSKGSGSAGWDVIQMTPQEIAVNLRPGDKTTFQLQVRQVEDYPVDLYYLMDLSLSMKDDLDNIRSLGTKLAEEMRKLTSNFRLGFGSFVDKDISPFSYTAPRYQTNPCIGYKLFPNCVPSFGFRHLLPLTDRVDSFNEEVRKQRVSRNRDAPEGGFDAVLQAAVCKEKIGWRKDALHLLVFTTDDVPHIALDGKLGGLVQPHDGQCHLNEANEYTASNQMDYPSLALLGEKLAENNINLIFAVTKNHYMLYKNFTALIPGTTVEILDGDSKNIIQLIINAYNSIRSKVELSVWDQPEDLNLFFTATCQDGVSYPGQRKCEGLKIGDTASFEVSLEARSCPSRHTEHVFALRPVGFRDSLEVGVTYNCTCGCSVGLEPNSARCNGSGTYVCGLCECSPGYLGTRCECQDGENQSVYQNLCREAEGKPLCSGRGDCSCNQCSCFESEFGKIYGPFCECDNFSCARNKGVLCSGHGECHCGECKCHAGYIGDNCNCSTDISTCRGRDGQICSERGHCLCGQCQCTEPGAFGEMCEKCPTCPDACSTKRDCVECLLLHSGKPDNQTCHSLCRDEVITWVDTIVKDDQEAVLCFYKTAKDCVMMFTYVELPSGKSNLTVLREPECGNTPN

Binder	signal (integrin αVβ3 [1])	signal (integrin αVβ5 [2])	signal (integrin αVβ3 [3])	signal/ng (integrin αVβ3 [3])	signal (integrin αVβ5 [4])	signal/ng (integrin αVβ5 [4])	signal (integrin αVβ3 [1]; record 2)	signal (integrin αVβ5 [2]; record 2)
M13 phage pKK94 displaying MICA α3 domain with loop 3.3 in loop 1 (designed binder, not shown: large carriers) TVPPMVNVTRVPRGDSDLTVTCRASGFYPWNITLSWRQDGVSLSHDTQQWGDVLPDGNGTYQTWVATRICQGEEQRFTCYMEHSGNHSTHPVPSGK	1.07 OD	2.84 OD						
M13 phage pKK98 displaying MICA α3 domain with loop 5.3 in loop 1 (designed binder, not shown: large carriers) TVPPMVNVTHLARGDDLTYVTCRASGFYPWNITLSWRQDGVSLSHDTQQWGDVLPDGNGTYQTWVATRICQGEEQRFTCYMEHSGNHSTHPVPSGK	1.22 OD	1.48 OD						
M13 phage pKK95 displaying MICA α3 domain with loop 3.4 in loop 1 (designed binder, not shown: large carriers) TVPPMVNVTRSARGDSDHRVTCRASGFYPWNITLSWRQDGVSLSHDTQQWGDVLPDGNGTYQTWVATRICQGEEQRFTCYMEHSGNHSTHPVPSGK	0.345 OD	0.232 OD						
M13 phage pKK96 displaying MICA α3 domain with loop 5.1 in loop 1 (designed binder, not shown: large carriers) TVPPMVNVTVTRGDTFTQSVTCRASGFYPWNITLSWRQDGVSLSHDTQQWGDVLPDGNGTYQTWVATRICQGEEQRFTCYMEHSGNHSTHPVPSGK	1.64 OD	2.42 OD						
soluble MICA generated by pKK44 (extended loop 3.2sp in loop 1) (designed binder) HHHHHHEPHSLRYNLTVLSWDGSVQSGFLTEVHLDGQPFLRCDRQKCRAKPQGQWAEDVLGNKTWDRETRDLTGNGKDLRMTLAHIKDQKEGLHSLQEIRVCEIHEDNSTRSSQHFYYDGELFLSQNLETEEWTMPQSSRAQTLAMNVRNFLKEDAMKTKTHYHAMHADCLQELRRYLKSGVVLRRTVPPMVNVTSGGSGGGSTSRGDHPRTQSGGSGGGVTCRASGFYPWNITLSWRQDGVSLSHDTQQWGDVLPDGNGTYQTWVATRICQGEEQRFTCYMEHSGNHSTHPVPSGK			0.41 OD	8.92 signal/ng	0.46 OD	10 signal/ng		
soluble MICA generated by pKK45 (extended loop 3.3sp in loop 1) (designed binder) HHHHHHEPHSLRYNLTVLSWDGSVQSGFLTEVHLDGQPFLRCDRQKCRAKPQGQWAEDVLGNKTWDRETRDLTGNGKDLRMTLAHIKDQKEGLHSLQEIRVCEIHEDNSTRSSQHFYYDGELFLSQNLETEEWTMPQSSRAQTLAMNVRNFLKEDAMKTKTHYHAMHADCLQELRRYLKSGVVLRRTVPPMVNVTSGGSGGGSRVPRGDSDLTSGGSGGGVTCRASGFYPWNITLSWRQDGVSLSHDTQQWGDVLPDGNGTYQTWVATRICQGEEQRFTCYMEHSGNHSTHPVPSGK			0.393 OD	9.51 signal/ng	0.41 OD	9.92 signal/ng		
soluble MICA generated by pKK48 (extended loop 3.2sp in loop 3) (designed binder) EPHSLRYNLTVLSWDGSVQSGFLTEVHLDGQPFLRCDRQKCRAKPQGQWAEDVLGNKTWDRETRDLTGNGKDLRMTLAHIKDQKEGLHSLQEIRVCEIHEDNSTRSSQHFYYDGELFLSQNLETKEWTMPQSSRAQTLAMNVRNFLKEDAMKTKTHYHAMHADCLQELRRYLKSGVVLRRTVPPMVNVTRSEASEGNITVTCRASGFYPWNITLSWRQDGVSLSHDTQQWGDVLPDGNGTYQTWVATRISGGSGGGSTSRGDHPRTQSGGSGGGCYMEHSGNHSTHPVPSGK			0.478 OD	6.08 signal/ng	0.604 OD	7.68 signal/ng		
soluble MICA generated by pKK50 (extended loop 5.1sp in loop 3) (designed binder) EPHSLRYNLTVLSWDGSVQSGFLTEVHLDGQPFLRCDRQKCRAKPQGQWAEDVLGNKTWDRETRDLTGNGKDLRMTLAHIKDQKEGLHSLQEIRVCEIHEDNSTRSSQHFYYDGELFLSQNLETKEWTMPQSSRAQTLAMNVRNFLKEDAMKTKTHYHAMHADCLQELRRYLKSGVVLRRTVPPMVNVTRSEASEGNITVTCRASGFYPWNITLSWRQDGVSLSHDTQQWGDVLPDGNGTYQTWVATRISGGSGGGSVTRGDTFTQSSGGSGGGCYMEHSGNHSTHPVPSGK			0.546 OD	5.85 signal/ng	0.721 OD	7.73 signal/ng		
soluble MICA generated by pKK49 (extended loop 3.3sp in loop 3) (designed binder) EPHSLRYNLTVLSWDGSVQSGFLTEVHLDGQPFLRCDRQKCRAKPQGQWAEDVLGNKTWDRETRDLTGNGKDLRMTLAHIKDQKEGLHSLQEIRVCEIHEDNSTRSSQHFYYDGELFLSQNLETKEWTMPQSSRAQTLAMNVRNFLKEDAMKTKTHYHAMHADCLQELRRYLKSGVVLRRTVPPMVNVTRSEASEGNITVTCRASGFYPWNITLSWRQDGVSLSHDTQQWGDVLPDGNGTYQTWVATRISGGSGGGSRVPRGDSDLTSGGSGGGCYMEHSGNHSTHPVPSGK			0.508 OD	5.86 signal/ng	0.478 OD	5.51 signal/ng		
soluble MICA generated by pKK51 (extended loop 5.3sp in loop 3) (designed binder) EPHSLRYNLTVLSWDGSVQSGFLTEVHLDGQPFLRCDRQKCRAKPQGQWAEDVLGNKTWDRETRDLTGNGKDLRMTLAHIKDQKEGLHSLQEIRVCEIHEDNSTRSSQHFYYDGELFLSQNLETKEWTMPQSSRAQTLAMNVRNFLKEDAMKTKTHYHAMHADCLQELRRYLKSGVVLRRTVPPMVNVTRSEASEGNITVTCRASGFYPWNITLSWRQDGVSLSHDTQQWGDVLPDGNGTYQTWVATRISGGSGGGSHLARGDDLTYSGGSGGGCYMEHSGNHSTHPVPSGK			0.694 OD	7.2 signal/ng	1.05 OD	10.9 signal/ng		
M13 phage pKK91 displaying MICA α3 domain with His10sp in loop 3 (designed binder, not shown: large carriers) TVPPMVNVTRSEASEGNITVTCRASGFYPWNITLSWRQDGVSLSHDTQQWGDVLPDGNGTYQTWVATRISGGSGGGSHHHHHHHHHHSGGSGGGCYMEHSGNHSTHPVPSGK	0.303 OD	0.078 OD						
soluble MICA generated by pKK36 (loop 3.1 in loop 1) (designed binder) HHHHHHEPHSLRYNLTVLSWDGSVQSGFLTEVHLDGQPFLRCDRQKCRAKPQGQWAEDVLGNKTWDRETRDLTGNGKDLRMTLAHIKDQKEGLHSLQEIRVCEIHEDNSTRSSQHFYYDGELFLSQNLETEEWTMPQSSRAQTLAMNVRNFLKEDAMKTKTHYHAMHADCLQELRRYLKSGVVLRRTVPPMVNVTSRGDHPRTQVTCRASGFYPWNITLSWRQDGVSLSHDTQQWGDVLPDGNGTYQTWVATRICQGEEQRFTCYMEHSGNHSTHPVPSGK			0.55 OD	19 signal/ng	0.526 OD	18.1 signal/ng		
M13 phage pKK93 displaying MICA α3 domain with loop 3.2 in loop 1 (designed binder, not shown: large carriers) TVPPMVNVTRTSRGDHPRTQVTCRASGFYPWNITLSWRQDGVSLSHDTQQWGDVLPDGNGTYQTWVATRICQGEEQRFTCYMEHSGNHSTHPVPSGK	0.284 OD	0.291 OD					0.616 OD	0.774 OD
M13 phage pKK100 displaying MICA α3 domain with extended loop 3.2sp in loop 1 (designed binder, not shown: large carriers) TVPPMVNVTSGGSGGGSTSRGDHPRTQSGGSGGGVTCRASGFYPWNITLSWRQDGVSLSHDTQQWGDVLPDGNGTYQTWVATRICQGEEQRFTCYMEHSGNHSTHPVPSGK	0.201 OD	0.186 OD						
M13 phage pKK101 displaying MICA α3 domain with extended loop 3.3sp in loop 1 (designed binder, not shown: large carriers) TVPPMVNVTSGGSGGGSRVPRGDSDLTSGGSGGGVTCRASGFYPWNITLSWRQDGVSLSHDTQQWGDVLPDGNGTYQTWVATRICQGEEQRFTCYMEHSGNHSTHPVPSGK	1.49 OD	1.23 OD						
M13 phage pKK97 displaying MICA α3 domain with loop 5.2 in loop 1 (designed binder, not shown: large carriers) TVPPMVNVTRGDTFTQSVTCRASGFYPWNITLSWRQDGVSLSHDTQQWGDVLPDGNGTYQTWVATRICQGEEQRFTCYMEHSGNHSTHPVPSGK	1.55 OD	2.59 OD						
M13 phage pKK92 displaying MICA α3 domain with loop 3.1 in loop 1 (designed binder, not shown: large carriers) TVPPMVNVTSRGDHPRTQVTCRASGFYPWNITLSWRQDGVSLSHDTQQWGDVLPDGNGTYQTWVATRICQGEEQRFTCYMEHSGNHSTHPVPSGK	0.858 OD	1.32 OD						
